Experimental data reported in patent publication US20030235860A1, “Interactions between AR, ER, TR2, and TR4” (priority 1999, published 2003).

B1: TR4: human testicular orphan nuclear receptor 4, SEQ ID NO:16; expressed from plasmid or in vitro translated (protein)
chain: MTSPSPRIQIISTDSAVASPQRIQGSEPASGPLSVFTSLNKEKIVTDQQTGQKIQIVTAVDASGSPKQQFILTSPDGAGTGKVILASPETSSAKQLIFTTSDNLVPGRIQIVTDSASVERLLGKTDVQRPQVVEYCVVCGDKASGRHYGAVSCEGCKGFFKRSVRKNLTYSCRSSQDCIINKHHRNRCQFCRLKKCLEMGMKMESVQSERKPFDVQREKPSNCAASTEKIYIRKDLRSPLIATPTFVADKDGARQTGLLDPGMLVNIQQPLIREDGTVLLATDSKAETSQGALGTLANVVTSLANLSESLNNGDTSEIQPEDQSASEITRAFDTLAKALNTTDSSSSPSLADGIDTSGGGSIHVISRDQSTPIIEVEGPLLSDTHVTFKLTMPSPMPEYLNVHYICESASRLLFLSMHRARSIPAFQGLGQDCNTSLVRACWNELFTLGLAQCAQVMSLSTILAAIVNHLQNSIQEDKLSGDRIKQVMEHIWKLQEFCNSMANWDIDGYEYAYLKAIVLFSPDHPGLTSTSQIEKFQEKAQMELQDYVQKTYSEDTYRLARILVRLPALRLMSSNITEELFFTGLIGNVSIDSIIPYILKMETAEYNGQITGVSL
B2: TR2: human testicular orphan nuclear receptor 2, 603 amino acids (protein, UniProt P13056 1-603, looked up)
chain: MATIEEIAHQIIEQQMGEIVTEQQTGQKIQIVTALDHNTQGKQFILTNHDGSTPSKVILARQDSTPGKVFLTTPDAAGVNQLFFTTPDLSAQHLQLLTDNSPDQGPNKVFDLCVVCGDKASGRHYGAVTCEGCKGFFKRSIRKNLVYSCRGSKDCIINKHHRNRCQYCRLQRCIAFGMKQDSVQCERKPIEVSREKSSNCAASTEKIYIRKDLRSPLTATPTFVTDSESTRSTGLLDSGMFMNIHPSGVKTESAVLMTSDKAESCQGDLSTLANVVTSLANLGKTKDLSQNSNEMSMIESLSNDDTSLCEFQEMQTNGDVSRAFDTLAKALNPGESTACQSSVAGMEGSVHLITGDSSINYTEKEGPLLSDSHVAFRLTMPSPMPEYLNVHYIGESASRLLFLSMHWALSIPSFQALGQENSISLVKAYWNELFTLGLAQCWQVMNVATILATFVNCLHNSLQQDKMSTERRKLLMEHIFKLQEFCNSMVKLCIDGYEYAYLKAIVLFSPDHPSLENMEQIEKFQEKAYVEFQDYITKTYPDDTYRLSRLLLRLPALRLMNATITEELFFKGLIGNIRIDSVIPHILKMEPADYNSQIIGHSI
modifications: full-length
notes: human testicular orphan nuclear receptor 2, 603 amino acids

Key:
Type in all cases: cell-based
MCF-7-TR4 cells = assay: MCF-7 cells growth assay (cell counting); settings: MCF-7-TR4 cells (E2 also in MCF-7-pBIG); 10 nM E2; Dox
Method: MCF-7-TR4 and MCF-7-pBIG cells, which were deprived of estrogen by culturing in phenol-free DMEM medium supplement with 10% charcol-stripped FBS for 4 days, were plated at 10^4 cells/well into 24-well plate. […] Cells were trypsinized at the specified time points and counted with a hemocytometer to determine cell density per sample.

MCF7-TR2 cells [1] = assay: MTT growth assay, MCF7-TR2 cells
Method: (§1) (A) Growth assays were performed by MTT method as instructed by manufacturer (Sigma). 5×10^3 MCF7-pBIG and MCF7-TR2 cells were seeded in 24-well plates and incubated in RPMI with 10% CD-FCS for 48 h. […] After 3- and 5-day treatment, cells were harvested for MTT assay. Data represents the relative folds of MTT O.D.570 values at day 5 divided by that at day 3. […] Cells were then trypsinized and fixed overnight in 70% Ethanol. After cells were incubated with 1 mg/ml RNase A (Sigma) and propidium iodide (Roche Molecular Biochemicals), the DNA contents of cells were measured by a flow cytometry. (C) Percentage of growth suppression by TR2. MCF7-TR2 cells were seeded at 5×10^3 cells per well in 24-well plates. […] The treatments were changed every two days. The indices of cell growth were determined by MTT assay. The MTT values from cells without doxycycline were set as 100% in each kind of treatment. Values are represented by the percentage of growth suppression from cells with doxycycline to that without doxycycline.

MCF7-TR2 cells [2] = assay: Cell cycle profile by flow cytometry, MCF7-TR2 cells; settings: 3 days, E2, or E2 with doxycycline-induced TR2
Method: as §1

Molecule | Cell growth (cell number) (MCF-7-TR4 cells) | Cell growth suppressed by TR2, compared to cells without doxycycline (MCF7-TR2 cells [1]; all-trans retinoic acid treated cells (all-trans RA)) | Cell growth suppressed by TR2, compared to cells without doxycycline (MCF7-TR2 cells [1]; presence of E2, 6- and 8-day treatments) | Cell growth suppressed by TR2, compared to cells without doxycycline (MCF7-TR2 cells [1]; under 5 μM tamoxifen treatment) | Cells in G1 (MCF7-TR2 cells [2]) | Cells in S (MCF7-TR2 cells [2])
B1 | repress | – | – | – | – | –
B2 | – | 29-45% | 71-72% | 8-9% | 58.1% | 14.5%
